Article PMC10820826, “Interrogation and validation of the interactome of neuronal Munc18-interacting Mint proteins with AlphaFold2” (The Journal of Biological Chemistry, 2023)

Columns and labels:
Munc18-1-His (rat) = Munc18-1-His (rat) (UniProt P61765)
[1] = molecular target: Munc18-1 + Mint1 (rat | human) (UniProt P61765); assay: ITC

Row | Kd (Munc18-1-His (rat)) [µM] | dH (Munc18-1-His (rat)) [kcal/mol] | stoichiometry N (Munc18-1-His (rat)) | dH [1] [kcal/mol] | Substance
1 | 216 | -57.6 | 1 |  | Mint1_14 peptide (261-282 A275A/E276A)
2 |  |  |  | -29.7 | Rat Sx1a (Sx1(1-261)-His) (from UniProt P32851 1-261) (domain or fragment)
